The chains are these.
B1: dBr_Jan07_36814 (dsDNA)
DNA 1: GCGCAAGCCATGACCCGGTACGATTTAGAAATGGCGGTCTGTGTTCCGTTGTCCGTGCTG
DNA 2: CAGCACGGACAACGGAACACAGACCGCCATTTCTAAATCGTACCGGGTCATGGCTTGCGC
B2: dBr_Jan07_04478 (dsDNA)
DNA 1: AGTTGCGCCACTATGCCAAAACACCATTGAGCACGTGTCTGTGTTCCGTTGTCCGTGCTG
DNA 2: CAGCACGGACAACGGAACACAGACACGTGCTCAATGGTGTTTTGGCATAGTGGCGCAACT
B3: dBr_Jan07_03962 (dsDNA)
DNA 1: TGGCCGCCACGTGGCGCTCTGCGGTCACATGTTGGGGTCTGTGTTCCGTTGTCCGTGCTG
DNA 2: CAGCACGGACAACGGAACACAGACCCCAACATGTGACCGCAGAGCGCCACGTGGCGGCCA
B4: dBr_Jan07_30895 (dsDNA)
DNA 1: TTGCCGTATAGTGATCCTAAGCGTCCACGTGGATGAGTCTGTGTTCCGTTGTCCGTGCTG
DNA 2: CAGCACGGACAACGGAACACAGACTCATCCACGTGGACGCTTAGGATCACTATACGGCAA
B5: dBr_Jan07_16171 (dsDNA)
DNA 1: ATCACGTGCATCTACTAGACACCCCATGCGTTAGGCGTCTGTGTTCCGTTGTCCGTGCTG
DNA 2: CAGCACGGACAACGGAACACAGACGCCTAACGCATGGGGTGTCTAGTAGATGCACGTGAT
B6: dBr_Jan07_16204 (dsDNA)
DNA 1: ATGAACCAATCGGTCGATTAGAGATAGAGAAAGAAGGTCTGTGTTCCGTTGTCCGTGCTG
DNA 2: CAGCACGGACAACGGAACACAGACCTTCTTTCTCTATCTCTAATCGACCGATTGGTTCAT
B7: dBr_Jan07_01315 (dsDNA)
DNA 1: ATTACCTACTCAACTTACTAGGAAACACGTGCACATGTCTGTGTTCCGTTGTCCGTGCTG
DNA 2: CAGCACGGACAACGGAACACAGACATGTGCACGTGTTTCCTAGTAAGTTGAGTAGGTAAT
B8: dBr_Jan07_09107 (dsDNA)
DNA 1: TCTCCTGTGACAATTACGCCCCCCCCAGGCGCCTACGTCTGTGTTCCGTTGTCCGTGCTG
DNA 2: CAGCACGGACAACGGAACACAGACGTAGGCGCCTGGGGGGGGCGTAATTGTCACAGGAGA
B9: dBr_Jan07_22161 (dsDNA)
DNA 1: GAATTTACCCGCGCTGTTGGTCACGTGTGTGGTTTTGTCTGTGTTCCGTTGTCCGTGCTG
DNA 2: CAGCACGGACAACGGAACACAGACAAAACCACACACGTGACCAACAGCGCGGGTAAATTC
B10: dBr_Jan07_20877 (dsDNA)
DNA 1: TAAACCTAGAGACGCTAAGAACACTTACAGGCGAGCGTCTGTGTTCCGTTGTCCGTGCTG
DNA 2: CAGCACGGACAACGGAACACAGACGCTCGCCTGTAAGTGTTCTTAGCGTCTCTAGGTTTA
B11: dBr_Jan07_25737 (dsDNA)
DNA 1: TGCACGACCAGTCATCCACGTGTTTGCCCGCAAAGTGTCTGTGTTCCGTTGTCCGTGCTG
DNA 2: CAGCACGGACAACGGAACACAGACACTTTGCGGGCAAACACGTGGATGACTGGTCGTGCA
B12: dBr_Jan07_16923 (dsDNA)
DNA 1: TGGGTCATGCTCGAACAGCGTCACTAGGTAGCACGTGTCTGTGTTCCGTTGTCCGTGCTG
DNA 2: CAGCACGGACAACGGAACACAGACACGTGCTACCTAGTGACGCTGTTCGAGCATGACCCA
B13: dBr_Jan07_16409 (dsDNA)
DNA 1: CGTTACTGGTGCACGTGTTCTCCTCTCCACCTTCAGGTCTGTGTTCCGTTGTCCGTGCTG
DNA 2: CAGCACGGACAACGGAACACAGACCTGAAGGTGGAGAGGAGAACACGTGCACCAGTAACG

This series deals with WT Max (Homo sapiens, UniProt P61244-2 13-93, M65Nle, norleucine written as M; other non-natural residues written as X). Description: PBM; 50-200 nM protein; PBS, 2% milk, BSA, salmon testes DNA, 0.02% Triton X-100. As to conditions: chain copies: 2; label: surface-attached array probe.
WT Max, sequence (P61244 other isoform, or with tags, fused parts or gaps M65Nle): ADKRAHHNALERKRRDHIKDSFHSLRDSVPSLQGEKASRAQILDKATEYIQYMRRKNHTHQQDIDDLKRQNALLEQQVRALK
In the case of B1, the binding signal is -1.34 robust z of log adjusted intensity (ours), mean of two arrays.
With B2, the binding signal is 4.55 robust z of log adjusted intensity (ours), mean of two arrays.
For B3 the value was 4.57 robust z of log adjusted intensity (ours), mean of two arrays; for B4, 4.78 robust z of log adjusted intensity (ours), mean of two arrays; for B5, 6.35 robust z of log adjusted intensity (ours), mean of two arrays.
For B6 the value was -1.46 robust z of log adjusted intensity (ours), mean of two arrays; for B7, 5.18 robust z of log adjusted intensity (ours), mean of two arrays.
The value for B8 was -1.31 robust z of log adjusted intensity (ours), mean of two arrays; that for B9 was 5.72 robust z of log adjusted intensity (ours), mean of two arrays; that for B10 was -1.02 robust z of log adjusted intensity (ours), mean of two arrays.
For B11, the binding signal was 4.58 robust z of log adjusted intensity (ours), mean of two arrays.
The value for B12 was 4.47 robust z of log adjusted intensity (ours), mean of two arrays; that for B13 was 4.95 robust z of log adjusted intensity (ours), mean of two arrays.

Source of the values: article PMC12636033, “Chemical Engineering of Transcription Factors Uncovered Cell-Permeable μMax Modulators”.
